US20250270737A1, “Antibodies That Bind GLP1R” (Twist Bioscience Corporation, priority 2019, published 2025)

What was measured:
CHO-parent cells = test: Binding assay with flow cytometry on CHO-parent cells; details: 100 nM IgG
Description: (§1) Briefly, flag-GLP1R-GFP expressing CHO cells (CHO-GLP1R) and CHO-parent cells were incubated with 100 nM IgG for 1 hour on ice, washed three times and incubated with Alexa 647 conjugated goat-anti-human antibody (1:200) for 30 minutes on ice, followed by three washes. All incubations and washes were performed in buffer containing PBS and 0.5% BSA. For titrations, IgG was serially diluted 1:3 starting from 100 nM. […] Analyses of binding assays with IgG titrations presented as binding curves plotting IgG concentrations against MFI (mean fluorescence intensity) are seen in FIGS. 15A-15H. Flow cytometry data of binding assays presented as dot plots with 100 nM IgG are seen in FIGS. 16A-16I.
(§2) The GLP1R IgGs were then assayed in binding assays coupled to flow cytometry analysis using similar methods as described in Example 12. Briefly, stably expressing Flag-GLP1R-GFP CHO cells or CHO-parent cells were incubated with primary IgG (100 nM or 1:3 titrations). Secondary antibody incubation involved Alexa 647 conjugated goat-anti-human IgG. Flow cytometry measured the GFP signal against the Alexa 647 signal to identify IgGs that specifically bound to the target (GLP1R).

GLP1R = GLP1R (Homo sapiens, UniProt P43220); test: Binding assay with flow cytometry on flag-GLP1R-GFP expressing CHO cells (CHO-GLP1R); details: 100 nM IgG
Description: as §1, §2

[1] = Thermal ramp stability (Tm and Tagg), UNcle platform; type: physicochemical
Excerpt: The GLP1R IgGs were characterized for thermal ramp stability (Tm and Tagg). The UNcle platform was used to characterize the IgGs and the data is seen in Table 21.

Sequence of GLP1R (P43220 24-463): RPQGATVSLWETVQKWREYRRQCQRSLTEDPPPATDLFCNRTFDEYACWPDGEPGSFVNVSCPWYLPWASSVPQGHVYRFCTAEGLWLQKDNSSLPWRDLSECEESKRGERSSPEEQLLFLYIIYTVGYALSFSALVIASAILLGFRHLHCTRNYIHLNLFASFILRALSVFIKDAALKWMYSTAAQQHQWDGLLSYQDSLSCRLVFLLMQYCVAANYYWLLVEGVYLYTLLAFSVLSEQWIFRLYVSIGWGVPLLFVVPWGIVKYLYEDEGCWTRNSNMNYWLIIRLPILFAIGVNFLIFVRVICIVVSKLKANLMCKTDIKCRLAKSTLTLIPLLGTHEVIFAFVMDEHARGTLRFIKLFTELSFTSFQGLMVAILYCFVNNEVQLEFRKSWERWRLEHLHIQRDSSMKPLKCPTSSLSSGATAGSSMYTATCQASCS

Molecule | binding to CHO-GLP1R (GLP1R) | also measured
GLP1R-238: GLP1R scFv clone reformatted to IgG2; CDR-H3 SEQ ID NO 2296, heavy 2303, light 2310 (antibody) heavy: MEWSWVFLFFLSVTTGVHSQVQLVQSGAEVKKPGSSVKVSCKASGGSFSSHAISWVRQAPGQGLEWMGGIIPIFGAPNYAQKFQGRVTITADESTSTAYMELSSLRSEDTAVYYCARANQHFSQAGRAARVPGPSSSLGPRGYHYYGMDVWGQGTLVTVSSASASTKGPSVFPLAPCSRSTSESTAALGCLVKDYFPEPVTVSWNSGALTSGVHTFPAVLQSSGLYSLSSVVTVPSSNFGTQTYTCNVDHKPSNTKVDKTVERKCCVECPPCPAPPVAGPSVFLFPPKPKDTLMISRTPEVTCVVVDVSHEDPEVQFNWYVDGVEVHNAKTKPREEQFNSTFRVVSVLTVVHQDWLNGKEYKCKVSNKGLPAPIEKTISKTKGQPREPQVYTLPPSREEMTKNQVSLTCLVKGFYPSDIAVEWESNGQPENNYKTTPPMLDSDGSFFLYSKLTVDKSRWQQGNVFSCSVMHEALHNHYTQKSLSLSPG light: MSVPTQVLGLLLLWLTDARCQSVLTQPPSVSAAPGQKVTISCSGSTSNIANNYVSWYQQLPGTAPKLLIYANNRRPSGIPDRFSGSKSGTSATLGITGLQTGDEADYYCGAWDVRLDVGVFGGGTKLTVLGQPKAAPSVTLFPPSSEELQANKATLVCLISDFYPGAVTVAWKADSSPVKAGVETTTPSKQSNNKYAASSYLS | found to bind to CHO-GLP1R | binding to CHO-parent cells versus CHO-GLP1R (specificity) (CHO-parent cells): bound equally to CHO-GLP1R and CHO-parent cells
GLP1R-240: GLP1R scFv clone reformatted to IgG2; CDR-H3 SEQ ID NO 2298, heavy 2305, light 2312 (antibody) heavy: MEWSWVFLFFLSVTTGVHSQVQLVQSGAEVKKPGSSVKVSCKASGGTFNNYGISWVRQAPGQGLEWMGGIIPVFGTANYAQKFQGRVTITADESTSTAYMELSSLRSEDTAVYYCARDMYYDFFGLGTFTSDVSSYLEGQAAKEFIAWLVKGVSPEVVPADDAFDIWGQGTLVTVSSASASTKGPSVFPLAPCSRSTSESTAALGCLVKDYFPEPVTVSWNSGALTSGVHTFPAVLQSSGLYSLSSVVTVPSSNFGTQTYTCNVDHKPSNTKVDKTVERKCCVECPPCPAPPVAGPSVFLFPPKPKDTLMISRTPEVTCVVVDVSHEDPEVQFNWYVDGVEVHNAKTKPREEQFNSTFRVVSVLTVVHQDWLNGKEYKCKVSNKGLPAPIEKTISKTKGQPREPQVYTLPPSREEMTKNQVSLTCLVKGFYPSDIAVEWESNGQPENNYKTTPPMLDSDGSFFLYSKLTVDKSRWQQGNVFSCSVMHEALHNHYTQKSLSLSPG light: MSVPTQVLGLLLLWLTDARCQSVLTQPPSVSAAPGQKVTISCSGSSSSIGNNYVSWYQQLPGTAPKLLIYANNKRPSGIPDRFSGSKSGTSATLGITGLQTGDEADYYCATWSSSPRGWVFGGGTKLTVLGQPKAAPSVTLFPPSSEELQANKATLVCLISDFYPGAVTVAWKADSSPVKAGVETTTPSKQSNNKYAASSYLSLTPEQWKSHRSYSCQVTHEGSTVEKTVAPTECS | found to bind to CHO-GLP1R | –
GLP1R-241: GLP1R scFv clone reformatted to IgG2; CDR-H3 SEQ ID NO 2299, heavy 2306, light 2313 (antibody) heavy: MEWSWVFLFFLSVTTGVHSQVQLVQSGAEVKKPGSSVKVSCKASGGTFSDYAISWVRQAPGQGLEWMGGIIPIFGTTNYAQKFQGRVTITADESTSTAYMELSSLRSEDTAVYYCAKHMSMQGSVAGGTFTSDVSSYLEGQAAKEFIAWLVKGGPSFIRADLVGDAFDVWGQGTLVTVSSASASTKGPSVFPLAPCSRSTSESTAALGCLVKDYFPEPVTVSWNSGALTSGVHTFPAVLQSSGLYSLSSVVTVPSSNFGTQTYTCNVDHKPSNTKVDKTVERKCCVECPPCPAPPVAGPSVFLFPPKPKDTLMISRTPEVTCVVVDVSHEDPEVQFNWYVDGVEVHNAKTKPREEQFNSTFRVVSVLTVVHQDWLNGKEYKCKVSNKGLPAPIEKTISKTKGQPREPQVYTLPPSREEMTKNQVSLTCLVKGFYPSDIAVEWESNGQPENNYKTTPPMLDSDGSFFLYSKLTVDKSRWQQGNVFSCSVMHEALHNHYTQKSLSLSPG light: MSVPTQVLGLLLLWLTDARCQSVLTQPPSVSAAPGQKVTISCSGISSNIGNNYVSWYQQLPGTAPKLLIYDDDQRPSGIPDRFSGSKSGTSATLGITGLQTGDEADYYCGTWDNILSAAVFGGGTKLTVLGQPKAAPSVTLFPPSSEELQANKATLVCLISDFYPGAVTVAWKADSSPVKAGVETTTPSKQSNNKYAASSYLSLTPEQWKSHRSYSCQVTHEGSTVEKTVAPTECS | found to bind to CHO-GLP1R | Average Tagg 266 [1]: 65.9 °C; Average Tm2 [1]: 75.7 °C; Average Tml [1]: 68.2 °C
GLP1R-242: GLP1R scFv clone reformatted to IgG2; CDR-H3 SEQ ID NO 2300, heavy 2307, light 2314 (antibody) heavy: MEWSWVFLFFLSVTTGVHSQVQLVQSGAEVKKPGSSVKVSCKASGGTFSSYEISWVRQAPGQGLEWMGGIIPILGIANYAQKFQGRVTITADESTSTAYMELSSLRSEDTAVYYCAKHMSMQADTGTFTSDVSSYLEGQAAKEFIAWLVKGEFSSRADLVGDAFDVWGQGTLVTVSSASASTKGPSVFPLAPCSRSTSESTAALGCLVKDYFPEPVTVSWNSGALTSGVHTFPAVLQSSGLYSLSSVVTVPSSNFGTQTYTCNVDHKPSNTKVDKTVERKCCVECPPCPAPPVAGPSVFLFPPKPKDTLMISRTPEVTCVVVDVSHEDPEVQFNWYVDGVEVHNAKTKPREEQFNSTFRVVSVLTVVHQDWLNGKEYKCKVSNKGLPAPIEKTISKTKGQPREPQVYTLPPSREEMTKNQVSLTCLVKGFYPSDIAVEWESNGQPENNYKTTPPMLDSDGSFFLYSKLTVDKSRWQQGNVFSCSVMHEALHNHYTQKSLSLSPG light: MSVPTQVLGLLLLWLTDARCQSVLTQPPSVSAAPGQKVTISCSGSSSNIENNDVSWYQQLPGTAPKLLIYGNDQRPSGIPDRFSGSKSGTSATLGITGLQTGDEADYYCGTWDNTLSAGVFGGGTKLTVLGQPKAAPSVTLFPPSSEELQANKATLVCLISDFYPGAVTVAWKADSSPVKAGVETTTPSKQSNNKYAASSYLSLTPEQWKSHRSYSCQVTHEGSTVEKTVAPTECS | found to bind to CHO-GLP1R | –
GLP1R-243: GLP1R scFv clone reformatted to IgG2; CDR-H3 SEQ ID NO 2301, heavy 2308, light 2315 (antibody) heavy: MEWSWVFLFFLSVTTGVHSQVQLVQSGAEVKKPGSSVKVSCKASGGTFSTYGINWVRQAPGQGLEWMGGIIPIFGTANYAQKFQGRVTITADESTSTAYMELSSLRSEDTAVYYCARANQHFFGKGDNLAARDFINWLIQTKITDGSNPGYHYYGMDVWGQGTLVTVSSASASTKGPSVFPLAPCSRSTSESTAALGCLVKDYFPEPVTVSWNSGALTSGVHTFPAVLQSSGLYSLSSVVTVPSSNFGTQTYTCNVDHKPSNTKVDKTVERKCCVECPPCPAPPVAGPSVFLFPPKPKDTLMISRTPEVTCVVVDVSHEDPEVQFNWYVDGVEVHNAKTKPREEQFNSTFRVVSVLTVVHQDWLNGKEYKCKVSNKGLPAPIEKTISKTKGQPREPQVYTLPPSREEMTKNQVSLTCLVKGFYPSDIAVEWESNGQPENNYKTTPPMLDSDGSFFLYSKLTVDKSRWQQGNVFSCSVMHEALHNHYTQKSLSLSPG light: MSVPTQVLGLLLLWLTDARCQSVLTQPPSVSAAPGQKVTISCSGSRSNIGKNYVSWYQQLPGTAPKLLIYENNERPSGIPDRFSGSKSGTSATLGITGLQTGDEADYYCSSYTTSNTQVFGGGTKLTVLGQPKAAPSVTLFPPSSEELQANKATLVCLISDFYPGAVTVAWKADSSPVKAGVETTTPSKQSNNKYAASSYLSLTPEQWKSHRSYSCQVTHEGSTVEKTVAPTECS | found to bind to CHO-GLP1R | –
GLP1R-244: GLP1R scFv clone reformatted to IgG2; CDR-H3 SEQ ID NO 2302, heavy 2309, light 2316 (antibody) heavy: MEWSWVFLFFLSVTTGVHSQVQLVQSGAEVKKPGSSVKVSCKASGGTFSSYAISWVRQAPGQGLEWMGGIIPIFGTANYAQKFQGRVTITADESTSTAYMELSSLRSEDTAVYYCARANQHFAATGAGEGQAAKEFIAWLVKGRVEIGYHYYGMDVWGQGTLVTVSSASASTKGPSVFPLAPCSRSTSESTAALGCLVKDYFPEPVTVSWNSGALTSGVHTFPAVLQSSGLYSLSSVVTVPSSNFGTQTYTCNVDHKPSNTKVDKTVERKCCVECPPCPAPPVAGPSVFLFPPKPKDTLMISRTPEVTCVVVDVSHEDPEVQFNWYVDGVEVHNAKTKPREEQFNSTFRVVSVLTVVHQDWLNGKEYKCKVSNKGLPAPIEKTISKTKGQPREPQVYTLPPSREEMTKNQVSLTCLVKGFYPSDIAVEWESNGQPENNYKTTPPMLDSDGSFFLYSKLTVDKSRWQQGNVFSCSVMHEALHNHYTQKSLSLSPG light: MSVPTQVLGLLLLWLTDARCQSVLTQPPSVSAAPGQKVTISCSGSSSNIGNNVVSWYQQLPGTAPKLLIYDNDKRRSGIPDRFSGSKSGTSATLGITGLQTGDEADYYCGSWDTSLSVWVFGGGTKLTVLGQPKAAPSVTLFPPSSEELQANKATLVCLISDFYPGAVTVAWKADSSPVKAGVETTTPSKQSNNKYAASSYLSLTPEQWKSHRSYSCQVTHEGSTVEKTVAPTECS | found to bind to CHO-GLP1R | –
